According to patent publication US20240199761A1 (AstraZeneca / MedImmune, published 2024):
Numbering of substitutions follows the chain as printed.

B1: Clone 07 (Bis3, TM; PAD4 Fab, PAD2 scFv) (bispecific antibody, human IgG1, lambda)
heavy: not shown
light: QSALTQPRSVSGSPGQSVTISCTGTSGDVGRYSHVSWYQQHPGKAPKLIIYNVYERPSGVPDRFSGSKSGNTASLTISGLQAEDEADYYCSSHSRSSTPVLFGGGTKLTVLGQPKAAPSVTLFPPSSEELQANKATLVCLISDFYPGAVTVAWKADSSPVKAGVETTTPSKQSNNKYAASSYLSLTPEQWKSHRSYSCQVTHEGSTVEKTVAPTECS
B2: Clone 08 (Bis3, TM; PAD2 Fab, PAD4 scFv) (bispecific antibody, human IgG1, lambda)
heavy: not shown
light: SYVLTQPPSVSVSPGQTASITCSGDKVGDKYVSWYQQKPGQSPVLVIYQDSQRPSGIPERFSGSNSGNTATLTISGTQAMDEADYYCQTWAPDVLLFGSGTKVTVLGQPKAAPSVTLFPPSSEELQANKATLVCLISDFYPGAVTVAWKADSSPVKAGVETTTPSKQSNNKYAASSYLSLTPEQWKSHRSYSCQVTHEGSTVEKTVAPTECS
B3: Clone 09 (Bis3, TM-YTE; Fab anti-PAD4, scFv anti-PAD2) (bispecific antibody, human IgG1, lambda)
heavy: not shown
light: B1 light
notes: Bivalent bispecific IgG-HC-scFv; also called PAD240009
B4: Clone 10 (Bis3, TM-YTE; Fab anti-PAD2, scFv anti-PAD4) (bispecific antibody, human IgG1, lambda)
heavy: not shown
light: B2 light
notes: Bivalent bispecific IgG-HC-scFv; also called PAD240010
B5: AB1630205 (mouse anti-PAD4) (antibody, V domains shown)
VH: EVQLVESGGGLVKPGGSRKLSCAASGFTFSDYGMHWVRQAPEKGLEWVAYISSGSSTIYYADTVKGRFTISRDNAKNTLFLQMTSLRSEDTAMYYCTRTYYDDAMDYWGQGTSVTVSS
VL: SIVMTQTPKFLLVSAGDRVTITCKASQSVSNDVVWYQQKPGQSPKLLISYASNRYTGVPDRFTGSGYGTDFTFTISSVQAEDLAVYFCQQDYSSPWTFGGGTKLEIK
notes: Biotinylated antibody captured on the chip
B6: AB1630204 (mouse anti-PAD4) (antibody, V domains shown)
VH: QVQLQQPGAELVKPGASVKLSCKASGYTFTSYWMHWVKQRPGRGPEWIGRIDPNSGGTKYNEKFKSKAILTVDKPSSTAYMQLSSLTSEDSAVYYCAREGGDYWYFDVWGAGTTVTVSS
VL: QIVLTQSPALMSASPGEKVTMTCSANSGLRYMYWYQQKPRSSPKPWIYLTSNLASGVPARFSGSGSGTSYSLTISSMEAEDAATYYCQQWSSIPPTFGAGTKLELK
notes: as for B5
B7: PAD40141 hIgG1 ngl-2 (anti-PAD2, parent) Fab (Fab, V domains shown)
VH: not shown
VL: SYVLTQPPSVSVSPGQTASITCSGDKVGDKYVSWYQQKPGQAPVLVMYQDSQRPSGIPERISGSNSGNTATLTISGTQAVDEAEYYCQTWDSNEYVFGSGTKVTVL
notes: Tested as Fab
B8: 141LO0055 hIgG1 ngl-2 (anti-PAD2) Fab (Fab, V domains shown)
VH: not shown
VL: B7 VL with T89S, W90E, D91N, S92A, N93V
notes: Tested as Fab
B9: 141LO0030 hIgG1 ngl-2 (anti-PAD2) Fab (Fab, V domains shown)
VH: not shown
VL: B7 VL with D91Y, S92D, N93D, E94A, Y95L, V96T
notes: Tested as Fab
B10: 141LO0002 hIgG1 pgl-4 (anti-PAD2) Fab (Fab, V domains shown)
VH: not shown
VL: SYVLTQPPSVSVSPGQTASITCSGDKVGDKYVSWYQQKPGQSPVLVIYQDSQRPSGIPERFSGSNSGNTATLTISGTQAMDEADYYCEVGVDYEYVFGSGTKVTVL
B11: 141LO0002 hIgG1 pgl-3 (anti-PAD2) Fab (Fab, V domains shown)
VH: not shown
VL: B10 VL
notes: Tested as Fab
B12: 141LO0039 hIgG1 ngl-2 (anti-PAD2) Fab (Fab, V domains shown)
VH: not shown
VL: B7 VL with Q88H, W90Y, D91A, S92E, N93D
notes: Tested as Fab
B13: 141LO0002 hIgG1 ngl-2 (anti-PAD2) Fab (Fab, V domains shown)
VH: not shown
VL: B10 VL with S42A, I47M, F61I, M80V, D84E
B14: PAD40175 hIgG1 ngl-2 (anti-PAD2) Fab (Fab, V domains shown)
VH: not shown
VL: QAVLTQPSSVSVAPGKTATITCGGDNIGSKSVHWYQQKPGQAPLLVIFYDTDRPSGVPERFSGSNSGNTATLTISRVEAGDEADYYCQVWDSNGDHYVFGTGTKLTVL
notes: Tested as Fab
B15: 141LO0035 hIgG1 pgl-4 (Clone 22, anti-PAD2) Fab (Fab, V domains shown)
VH: not shown
VL: B10 VL with E88Q, V89T, G90W, V91A, D92P, Y93D, E94V, Y95L, V96L
notes: Tested as Fab
B16: 141LO0039 hIgG1 pgl-4 (anti-PAD2) Fab (Fab, V domains shown)
VH: not shown
VL: B10 VL with E88H, V89T, G90Y, V91A, D92E, Y93D
notes: Tested as Fab
B17: 141LO0035 hIgG1 ngl-2 (anti-PAD2) Fab (Fab, V domains shown)
VH: not shown
VL: B7 VL with D91A, S92P, N93D, E94V, Y95L, V96L
notes: Tested as Fab
B18: 141LO0030 hIgG1 pgl-4 (anti-PAD2) Fab (Fab, V domains shown)
VH: not shown
VL: B10 VL with E88Q, V89T, G90W, V91Y, Y93D, E94A, Y95L, V96T
notes: Tested as Fab
B19: PAD40141 hIgG1 ngl-2 (Parent) (Fab, V domains shown)
VH: not shown
VL: B7 VL
notes: Anti-PAD2; tested as Fab
B20: 141LO0055 hIgG1 ngl-2 (Fab, V domains shown)
VH: not shown
VL: B7 VL with T89S, W90E, D91N, S92A, N93V
notes: Anti-PAD2; tested as Fab
B21: 141LO0002 hIgG1 pgl-4 (Germlined) (Fab, V domains shown)
VH: not shown
VL: B10 VL
B22: 141LO0039 hIgG1 ngl-2 (Fab, V domains shown)
VH: not shown
VL: B7 VL with Q88H, W90Y, D91A, S92E, N93D
notes: Anti-PAD2; tested as Fab
B23: 141LO0002 hIgG1 pgl-3 (Germlined) (Fab, V domains shown)
VH: not shown
VL: B10 VL
notes: Anti-PAD2; tested as Fab
B24: 141LO0030 hIgG1 ngl-2 (Fab, V domains shown)
VH: not shown
VL: B7 VL with D91Y, S92D, N93D, E94A, Y95L, V96T
notes: Anti-PAD2; tested as Fab
B25: 141LO0002 hIgG1 ngl-2 (Fab, V domains shown)
VH: not shown
VL: B10 VL with S42A, I47M, F61I, M80V, D84E
B26: 141LO0035 hIgG1 ngl-2 (Fab, V domains shown)
VH: not shown
VL: B7 VL with D91A, S92P, N93D, E94V, Y95L, V96L
notes: Anti-PAD2; tested as Fab
B27: PAD40175 hIgG1 ngl-2 (Fab, V domains shown)
VH: not shown
VL: B14 VL
notes: Anti-PAD2; tested as Fab
B28: 141LO0035 hIgG1 pgl-4 (Germlined) Clone 22 (Fab, V domains shown)
VH: not shown
VL: B10 VL with E88Q, V89T, G90W, V91A, D92P, Y93D, E94V, Y95L, V96L
notes: Anti-PAD2 lead; tested here as Fab
B29: 141LO0030 hIgG1 pgl-4 (Germlined) (Fab, V domains shown)
VH: not shown
VL: B10 VL with E88Q, V89T, G90W, V91Y, Y93D, E94A, Y95L, V96T
notes: Anti-PAD2; tested as Fab
B30: 141LO0039 hIgG1 pgl-4 (Germlined) (Fab, V domains shown)
VH: not shown
VL: B10 VL with E88H, V89T, G90Y, V91A, D92E, Y93D
notes: Anti-PAD2; tested as Fab

target: recombinant human PAD2 (human, UniProt Q9Y2J8 1-665, enzymatically biotinylated on an Avi-tag (when captured on the SPR chip)); experiment: cell-based or functional assay

Binder	potency (IC50), Histone-H3 citrullination ELISA, recombinant PAD2 [nM]
B1	< 1
B2	< 1

target: T1, huFcRn (human, UniProt P55899 24-297; P61769 21-119, limits assumed); experiment: huFcRn affinity chromatography, pH gradient elution
T1 construct: also called human neonatal Fc receptor

Binder	HPLC retention [min]	Relative retention
B3	23.3	0.828
B4	22.8	0.753

target: T2, recombinant mouse PAD4 (mouse, UniProt Q9Z183 1-666); experiment: SPR; biotinylated antibody captured on C1-streptavidin, PAD4 flowed over
T2 construct: Recombinant

Binder	Kd [nM]	koff [s⁻¹]	kon [M⁻¹ s⁻¹]
B5	0.094	0.000106	1.14e+06
B6	1.31	0.000314	239000

target: T3, recombinant human PAD2 (human, UniProt Q9Y2J8 1-665, enzymatically biotinylated on an Avi-tag); experiment: SPR (Biacore 8K), biotinylated PAD2 on streptavidin chip, Fab flowed over
T3 construct: Recombinant, biotinylated on an Avi-tag and captured on streptavidin; also called peptidyl arginine deiminase 2

Binder	Kd [nM]
B7	261
B8	0.364
B9	0.949
B10	2.78
B11	3.31
B12	1.87
B13	3.78
B14	6.73
B15	0.218
B16	3.9
B17	0.185
B18	2.14

target: T4, recombinant mouse PAD2 (mouse, UniProt Q08642 1-673, enzymatically biotinylated on an Avi-tag); experiment: as above
T4 construct: Recombinant, biotinylated on an Avi-tag

Binder	Kd [nM]
B10	38.5
B11	33.8
B14	2.35
B15	0.794
B16	17.8
B17	0.571
B18	13.2

target: T5, recombinant human PAD2 (biotinylated) (human, UniProt Q9Y2J8 1-665, enzymatically biotinylated on an Avi-tag); experiment: SPR (Biacore), biotinylated PAD2 on CM5/C1-streptavidin, Fab flowed over; average
T5 construct: not shown: Avi-tag (and any other tags); said to be at the C-terminus in this earlier assay

Binder	Kd [nM]	koff [s⁻¹]	kon [M⁻¹ s⁻¹]
B19	261	0.111	445000
B20	0.364	0.000675	1.85e+06
B21	2.78	0.00314	1.13e+06
B22	1.87	0.00157	840000
B23	3.31	0.0035	1.07e+06
B24	0.949	0.000613	647000
B25	3.78	0.00328	880000
B26	0.185	0.000192	1.04e+06
B27	6.73	0.000629	93000
B28	0.218	0.000221	1.01e+06
B29	2.14	0.00101	474000
B30	3.9	0.00245	629000

target: T6, recombinant mouse PAD2 (biotinylated) (mouse, UniProt Q08642 1-673, enzymatically biotinylated on an Avi-tag); experiment: as above
T6 construct: not shown: Avi-tag (and any other tags); said to be at the C-terminus in this earlier assay

Binder	Kd [nM]	koff [s⁻¹]	kon [M⁻¹ s⁻¹]
B21	38.5	0.0256	692000
B23	33.8	0.026	777000
B26	0.571	0.000646	1.14e+06
B27	2.35	0.000288	123000
B28	0.794	0.000766	971000
B29	13.2	0.00484	378000
B30	17.8	0.0125	722000
